Measured values as given in article PMC8804299, “The Response of the Estrogen-Related Receptor to 20-Hydroxyecdysone in Bombyx mori: Insight Into the Function of Estrogen-Related Receptor in Insect 20-Hydroxyecdysone Signaling Pathway”.

T1: BmEcR (ecdysone receptor);BmUSP (ultraspiracle) (Bombyx mori;Bombyx mori, UniProt P49881;P49700 1-606;1-462, |)
T1 sequence 1: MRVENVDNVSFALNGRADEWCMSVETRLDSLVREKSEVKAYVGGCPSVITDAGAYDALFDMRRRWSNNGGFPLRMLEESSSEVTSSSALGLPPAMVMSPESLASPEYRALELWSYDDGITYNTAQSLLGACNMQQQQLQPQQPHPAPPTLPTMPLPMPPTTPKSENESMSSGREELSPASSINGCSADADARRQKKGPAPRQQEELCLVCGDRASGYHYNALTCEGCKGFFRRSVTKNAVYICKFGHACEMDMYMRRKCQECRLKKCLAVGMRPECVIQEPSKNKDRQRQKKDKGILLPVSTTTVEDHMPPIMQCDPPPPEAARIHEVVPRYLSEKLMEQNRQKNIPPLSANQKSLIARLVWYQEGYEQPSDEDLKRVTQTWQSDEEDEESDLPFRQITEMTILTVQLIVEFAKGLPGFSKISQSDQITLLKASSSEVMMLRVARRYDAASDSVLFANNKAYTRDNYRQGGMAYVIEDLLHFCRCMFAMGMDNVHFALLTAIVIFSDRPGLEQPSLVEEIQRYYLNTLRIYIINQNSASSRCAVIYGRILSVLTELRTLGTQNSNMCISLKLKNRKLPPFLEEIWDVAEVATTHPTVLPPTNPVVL
T1 sequence 2: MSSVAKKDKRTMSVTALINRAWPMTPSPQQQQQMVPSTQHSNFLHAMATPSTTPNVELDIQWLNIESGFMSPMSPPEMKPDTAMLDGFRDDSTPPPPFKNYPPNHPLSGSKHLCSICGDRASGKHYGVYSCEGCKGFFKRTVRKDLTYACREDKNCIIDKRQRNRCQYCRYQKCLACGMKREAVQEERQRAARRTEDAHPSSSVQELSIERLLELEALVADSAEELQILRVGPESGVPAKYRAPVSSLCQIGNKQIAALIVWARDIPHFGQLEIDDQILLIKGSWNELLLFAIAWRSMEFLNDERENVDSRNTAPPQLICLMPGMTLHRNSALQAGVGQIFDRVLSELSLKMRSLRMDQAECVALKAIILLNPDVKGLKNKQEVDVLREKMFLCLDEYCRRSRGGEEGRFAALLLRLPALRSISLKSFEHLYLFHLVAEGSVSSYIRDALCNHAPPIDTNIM

B1: EcRE-like 8 probe (Bio-ERRE-8) (dsDNA)
DNA 1: GAGACAGCGTTAGCTGATATTCTAAAT
DNA 2: ATTTAGAATATCAGCTAACGCTGTCTC
B2: EcRE-like 3 probe (Bio-ERRE-3) (dsDNA)
DNA 1: GTTCCGAAATAAAATTACCTGATGGTA
DNA 2: TACCATCAGGTAATTTTATTTCGGAAC
B3: EcRE-like 1 probe (Bio-ERRE-1) (dsDNA)
DNA 1: ATTAAGTAGCAGTAAACTGTGACCT
DNA 2: AGGTCACAGTTTACTGCTACTTAAT
B4: EcRE-like 1 mutant probe (Bio-ERRE-1 mut) (dsDNA)
DNA 1: ATTAGACGATGACGGGTCATGACCT
DNA 2: AGGTCATGACCCGTCATCGTCTAAT
B5: EcRE-like 2 probe (Bio-ERRE-2) (dsDNA)
DNA 1: TAAAGAACCTTTATTAAAATTAAAATA
DNA 2: TATTTTAATTTTAATAAAGGTTCTTTA

The binders below were run against T1, BmEcR (ecdysone receptor);BmUSP … (assay: EMSA; EMSA: 25 C for 25 min; Beyotime chemiluminescent EMSA kit (binding buffer not stated); 5% native PAGE in Tris-borate-EDTA (45 mM Tris-borate, 1 mM EDTA, pH 8.3); probe 5 uM, BmEcR 0.3 ug/uL, BmUSP 0.45 ug/uL). Conditions: protein: recombinant;recombinant; tags: ;; copies: 1;1; label: 3'-biotin; blunt.

Binder | binding result
B1 | no binding
B2 | no binding
B3 | binds
B4 | no binding
B5 | no binding
